From patent US20200109390A1 (Chugai, published 2020) come the findings set out here.

The target of this assay is T1, human blood coagulation factor IX (human, UniProt P00740 47-461, Gla (gamma-carboxyglutamate) residues in the GLA domain of native FIX); the twelve Glu of the GLA domain are at positions 53, 54, 61, 63, 66, 67, 72, 73, 76, 79, 82 and 86 of SEQ ID NO: 1 (positions …).
T1 construct: The FIX co-administered with the antibodies was Christmassin M I.V; antibody A was raised against human FIXa; also called FIX; human FIX
T1 sequence (P00740 47-461): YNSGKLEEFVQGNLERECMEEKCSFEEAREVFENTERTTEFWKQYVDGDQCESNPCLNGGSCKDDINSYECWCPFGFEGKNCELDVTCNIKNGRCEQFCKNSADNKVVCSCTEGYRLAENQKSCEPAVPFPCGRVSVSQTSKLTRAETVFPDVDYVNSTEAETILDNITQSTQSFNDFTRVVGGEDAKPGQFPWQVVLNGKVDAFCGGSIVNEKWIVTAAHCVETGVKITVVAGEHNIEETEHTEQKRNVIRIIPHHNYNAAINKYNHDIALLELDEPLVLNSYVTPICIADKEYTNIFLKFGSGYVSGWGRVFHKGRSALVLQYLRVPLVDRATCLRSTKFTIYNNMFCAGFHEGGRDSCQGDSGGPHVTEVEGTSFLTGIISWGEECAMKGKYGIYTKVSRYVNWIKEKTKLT
The assay is described as follows: not described (statement in Example 4). As to the method: PK tests using mice were performed by the following method. Through the tail vein or under the dorsal skin of mice (C57BL/6J mouse, Charles River Japan), FIX (Christmassin M I.V.) was administered at a dose of 0.6 mg/kg by itself or simultaneously with 8 mg/kg of an anti-FIX antibody A or anti-FIX antibody B, in a single dose. Blood was collected five minutes, two hours, four hours, seven hours, one day, two days, seven days, 14 days, 21 days, and 28 days after the administration. The collected blood was immediately subjected to separation by centrifugation at 4° C. and 15,000 rpm for 15 minutes to obtain the plasma. The separated plasma was stored in a freezer set to −20° C. or lower until performing the measurements.
The concentration of FIX in mouse plasma was determined by ELISA. […] After stopping the reaction by adding a reaction-stopping solution (AssayPro), the 450-nm absorbance of the reaction solution in each well was measured using a microplate reader. The concentrations of FIX in mouse plasma were calculated from the absorbances of the calibration curve using SOFTmax PRO analysis software (Molecular Devices).

B1: anti-FIX antibody B (antibody, human IgG1, kappa, V domains shown)
VH: QVQLVQSGSELKKPGASVKVSCKASGYTFTNYGMNWVRQAPGQGLKWMGWINTRNGKSTYVDDFKGRFVFSLDSSVSTAYLQISSLKADDTAVYYCTREGNMDGYFPFTYWGQGTLVTVSS
VL: QIVLTQSPSSLSASVGDRVTITCRASSSVNYMHWYQQKPGKAPKPWIYATSNLASGVPSRFSGSGSGTDYTFTISSLQPEDIATYYCQQWSINPRTFGQGTKVEIKR
notes: expressed transiently in FS293 cells
Take B1: the binding result is “binds”.

B2: anti-FIX antibody A (antibody, human IgG1, kappa, V domains shown)
VH: QVQLQQSGAELAKPGASVKLSCKASGYTFTSSWMHWIKQRPGQGLEWLGYINPSSGYTKYNRKFRDKATLTADKSSSTAYMQLTSLTYEDSAVYYCARGGNGYYFDYWGQGTTLTVSS
VL: DIVMTQSHKFMSTSVGDRVSITCKASQDVGTAVAWYQQKPGQSPKLLIYWASTRHTGVPDRFTGSRYGTDFTLTISNVQSEDLADYLCQQYSNYITFGGGTKLELKR
notes: Obtained by immunizing an animal with human FIXa
B2: the binding result is “binds”.
